Reference: patent US20120021999A1 (published 2012)
Ends that are not written are not given here. * marks the point of attachment. Biotin = O=C1N[C@H]2[C@H](CS[C@H]2CCCCC(=O)*)N1

Key:
[1] = biological target: T1, PP2Ac from IL-2-stimulated TS1αβ cellular extracts (mouse, UniProt P63330 1-309); assay: pull-down of biotinylated peptide on streptavidin beads from TS1αβ cell extracts, anti-PP2Ac immunoblot
T1 construct: Endogenous protein in a cell lysate, detected by immunoblot with anti-PP2Ac antibody
Method: Control streptavidin-sepharose alone or conjugated to DPT-C9, DPT-C9r, DPT-sh1 or C9 peptides were incubated with IL-2-stimulated cellular extracts form TS1αβ cells (10⁷ cells/point). Identification of unbound proteins in lysates or bound proteins in pull-down experiments was performed by immunoblotting using antibodies against PP2Ac or PP1c.
Biotinylated peptides were preincubated 2 h at 0-100 μM (in final concentration with lysate) at room temperature with 30 μl of streptavidin-coated immunomagnetic beads (Calbiochem, San Diego Calif.). During this time, 10⁷ exponentially growing TS1αβ cells were first washed twice with PBS and then lysed 10 minutes on ice in 400 μl of lysis buffer (50 mM Tris pH7.4, 150 mM NaCl, 20% glycerol, 1% NP-40, 10 mM EDTA, 1 mM PhenylMethylSulfonyl Fluoride, 10 mM NaF, 1 mM orthovanadate, “complete, EDTA-free” protease inhibitor cocktail from Roche).
Lysates were clarified at 13000 g for 10 minutes at 4° C. and were incubated with biotinylated peptides associated with the streptavidin-coated immunomagnetic beads 2 h at 4° C. Biotinylated peptides were pulled down with streptavidin beads and washed two times in 700 μl of lysis buffer on ice. Bound proteins and unbound lysates were then analyzed by SDS-PAGE and Western Blotting using PP1c or PP2Ac antibodies.

[2] = biological target: T2, caspase-9 from IL-2-stimulated TS1αβ cellular extracts (mouse, UniProt Q8C3Q9 1-454, limits assumed); assay: pull-down of biotinylated peptide on streptavidin beads from TS1αβ cell extracts, immunoblot
T2 construct: Endogenous protein in a cell lysate
T2 sequence (looked up): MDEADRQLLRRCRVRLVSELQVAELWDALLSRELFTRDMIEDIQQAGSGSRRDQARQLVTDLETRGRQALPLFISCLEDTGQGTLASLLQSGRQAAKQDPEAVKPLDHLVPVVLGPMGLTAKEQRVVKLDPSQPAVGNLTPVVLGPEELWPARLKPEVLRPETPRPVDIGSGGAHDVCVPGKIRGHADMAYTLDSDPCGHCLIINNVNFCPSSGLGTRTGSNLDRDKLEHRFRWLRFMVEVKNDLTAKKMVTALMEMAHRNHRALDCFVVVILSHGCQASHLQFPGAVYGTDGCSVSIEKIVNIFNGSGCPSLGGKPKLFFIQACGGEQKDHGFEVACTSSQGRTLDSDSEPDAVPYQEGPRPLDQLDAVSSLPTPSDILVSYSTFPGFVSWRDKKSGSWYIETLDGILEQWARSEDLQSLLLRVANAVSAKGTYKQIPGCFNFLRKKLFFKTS

T1 sequence (P63330 whole entry): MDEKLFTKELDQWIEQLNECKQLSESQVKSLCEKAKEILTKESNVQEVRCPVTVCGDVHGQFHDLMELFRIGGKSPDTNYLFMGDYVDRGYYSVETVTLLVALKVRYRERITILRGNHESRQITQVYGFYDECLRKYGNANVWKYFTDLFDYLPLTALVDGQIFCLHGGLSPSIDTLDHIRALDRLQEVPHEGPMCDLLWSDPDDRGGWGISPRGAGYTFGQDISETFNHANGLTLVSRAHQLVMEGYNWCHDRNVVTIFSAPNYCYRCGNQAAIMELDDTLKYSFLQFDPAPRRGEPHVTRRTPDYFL

B1: DPT-C9r (peptide)
peptide: Biotin-VKKKKIKREIKILDESRAWQELIGDLTEIY
notes: Biotinylated, held on streptavidin beads in the pull-down
Q: Does B1 bind [1]?
A: no binding

B2: C9 (peptide)
peptide: Biotin-YIETLDGILEQWARSEDL
notes: Synthetic NH2-biotinylated peptide, held on streptavidin beads in the pull-down
Q: Does B2 bind [2]?
A: no binding

B3: DPT-C9 (peptide)
peptide: Biotin-VKKKKIKREIKIYIETLDGILEQWARSEDL
notes: as for B1
Q: Does B3 bind [2]?
A: no binding

B4: DPT-sh1 (peptide)
peptide: Biotin-VKKKKIKREIKI
notes: Penetrating shuttle peptide; origin printed as CK2alpha (human); Biotinylated, held on streptavidin beads in the pull-down; also called shuttle
Q: Does B4 bind [1]?
A: no binding
